Assay results: article PMC3553976 (Nucleic Acids Research, 2012)
Where two headings read alike, the source gives them in different places.

T1: SF1^HH (residues 27–145) (human, UniProt Q15637 27-145)
T1 sequence: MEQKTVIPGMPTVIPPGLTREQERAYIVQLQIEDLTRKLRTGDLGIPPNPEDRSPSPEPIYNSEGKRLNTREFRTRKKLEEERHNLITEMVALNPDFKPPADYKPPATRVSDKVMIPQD

B1: SF1^2-320 with the α1–α2 linker deleted (Δ75–90) (domain or fragment, human)
chain: ATGANATPLDFPSKKRKRSRWNQDTMEQKTVIPGMPTVIPPGLTREQERAYIVQLQIEDLTRKLRTGDLGIPPGTGKRLNTREFRTRKKLEEERHNLITEMVALNPDFKPPADYKPPATRVSDKVMIPQDEYPEINFVGLLIGPRGNTLKNIEKECNAKIMIRGKGSVKEGKVGRKDGQMLPGEDEPLHALVTANTMENVKKAVEQIRNILKQGIETPEDQNDLRKMQLRELARLNGTLREDDNRILRPWQSSETRSITNTTVCTKCGGAGHIASDCKFQRPGDPQSAQDKARMDKEYLSLMAEL
B2: SF1^2-320 with helix α1 deleted (Δ35–68) (domain or fragment, human)
chain: ATGANATPLDFPSKKRKRSRWNQDTMEQKTVIPGTDLGIPPNPEDRSPSPEPIYNSEGKRLNTREFRTRKKLEEERHNLITEMVALNPDFKPPADYKPPATRVSDKVMIPQDEYPEINFVGLLIGPRGNTLKNIEKECNAKIMIRGKGSVKEGKVGRKDGQMLPGEDEPLHALVTANTMENVKKAVEQIRNILKQGIETPEDQNDLRKMQLRELARLNGTLREDDNRILRPWQSSETRSITNTTVCTKCGGAGHIASDCKFQRPGDPQSAQDKARMDKEYLSLMAEL
B3: SF1-Δα2, SF1^2-320 with helix α2 deleted (Δ96–128) (domain or fragment, human)
chain: ATGANATPLDFPSKKRKRSRWNQDTMEQKTVIPGMPTVIPPGLTREQERAYIVQLQIEDLTRKLRTGDLGIPPNPEDRSPSPEPIYNSEGKRLNGTYKPPATRVSDKVMIPQDEYPEINFVGLLIGPRGNTLKNIEKECNAKIMIRGKGSVKEGKVGRKDGQMLPGEDEPLHALVTANTMENVKKAVEQIRNILKQGIETPEDQNDLRKMQLRELARLNGTLREDDNRILRPWQSSETRSITNTTVCTKCGGAGHIASDCKFQRPGDPQSAQDKARMDKEYLSLMAEL
B4: SF1 (residues 1–260) (domain or fragment, human, UniProt Q15637 1-260, looked up)
chain: MATGANATPLDFPSKKRKRSRWNQDTMEQKTVIPGMPTVIPPGLTREQERAYIVQLQIEDLTRKLRTGDLGIPPNPEDRSPSPEPIYNSEGKRLNTREFRTRKKLEEERHNLITEMVALNPDFKPPADYKPPATRVSDKVMIPQDEYPEINFVGLLIGPRGNTLKNIEKECNAKIMIRGKGSVKEGKVGRKDGQMLPGEDEPLHALVTANTMENVKKAVEQIRNILKQGIETPEDQNDLRKMQLRELARLNGTLREDDNR
B5: pSF1, phosphorylated SF1 (residues 1–260) (domain or fragment)
chain: B4 chain
modifications: phosphoserine at 80 and 82
B6: His6-tagged SF1^2-320 (domain or fragment, human, UniProt Q15637 2-320, looked up)
chain: ATGANATPLDFPSKKRKRSRWNQDTMEQKTVIPGMPTVIPPGLTREQERAYIVQLQIEDLTRKLRTGDLGIPPNPEDRSPSPEPIYNSEGKRLNTREFRTRKKLEEERHNLITEMVALNPDFKPPADYKPPATRVSDKVMIPQDEYPEINFVGLLIGPRGNTLKNIEKECNAKIMIRGKGSVKEGKVGRKDGQMLPGEDEPLHALVTANTMENVKKAVEQIRNILKQGIETPEDQNDLRKMQLRELARLNGTLREDDNRILRPWQSSETRSITNTTVCTKCGGAGHIASDCKFQRPGDPQSAQDKARMDKEYLSLMAEL
B7: U2AF65^UHM, C-terminal U2AF homology motif domain of U2AF65 (residues 372–475) (domain or fragment)
chain: GHPTEVLCLMNMVLPEELLDDEEYEEIVEDVRDECSKYGLVKSIEIPRPVDGVEVPGCGKIFVEFTSVFDCQKAMQGLTGRKFANRVVVTKYCDPDSYHRRDFW

Key:
[1] = target: T2, U2AF65^RRM123 (residues 147–475) (human, UniProt P26368 147-475); assay: native gel or EMSA
Target sequence in this assay (P26368 147-475, one chain of several): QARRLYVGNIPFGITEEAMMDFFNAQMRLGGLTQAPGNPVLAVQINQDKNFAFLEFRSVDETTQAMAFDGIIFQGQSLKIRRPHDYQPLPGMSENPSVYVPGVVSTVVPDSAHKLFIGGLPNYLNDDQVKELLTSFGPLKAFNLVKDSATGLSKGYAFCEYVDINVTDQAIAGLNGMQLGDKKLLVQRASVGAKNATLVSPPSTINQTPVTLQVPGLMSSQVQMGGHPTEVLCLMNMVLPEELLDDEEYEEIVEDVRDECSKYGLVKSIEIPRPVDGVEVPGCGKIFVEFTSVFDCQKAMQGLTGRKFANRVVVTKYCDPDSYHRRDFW

[2] = target: T2, U2AF65^RRM123 (residues 147–475); assay: ITC
[3] = target: B7; assay: ITC
SF1^HH (residues 27–145) = target: T1, SF1^HH (residues 27–145); assay: ITC
SF1^NTD (residues 1–145) [4] = target: T3, SF1^NTD (residues 1–145) (human, UniProt Q15637 1-145); assay: ITC
SF1^NTD (residues 1–145) [5] = target: T3, SF1^NTD (residues 1–145); assay: ITC; remark: listed apart in the source

B1
binding result [1]: binds

B2
binding result [1]: binds

B3
binding result [1]: binds

B4
Kd [2]: 114 ± 23 nM

B5
Kd [2]: 96 ± 32 nM

MATGANATPLDFPSKKRKRSRWNQD (peptide, UniProt Q15637 1-25, looked up) [SF1^ULM (residues 1–25)]
Kd [3]: 127 ± 48 nM

B6
binding result [1]: binds

B7
Kd (SF1^HH (residues 27–145)): > 100000 nM | Kd (SF1^NTD (residues 1–145) [4]): 85 nM | Kd (SF1^NTD (residues 1–145) [5]): 84 ± 23 nM
